In US20020160955A1 (published 2002):

How the values were obtained:
[1] = molecular target: T1, IGF-I T41A (G1S-A70V background) displayed on phage (human; bacteriophage M13); assay: competitive phage ELISA
T1 construct: monovalent M13 phage display
T1 chain: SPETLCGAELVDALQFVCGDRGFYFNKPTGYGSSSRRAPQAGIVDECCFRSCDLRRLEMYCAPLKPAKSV
Summary of the method: (§1)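 Phage, normalized to a maximal ELISA signal of 0.2-0.4 per mutant, were premixed with threefold serial dilutions of soluble competitor in 0.5% Tween 20/PBS and incubated 1 h at room temperature on immobilized target.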

[2] = molecular target: T2, IGF-I P2A (G1S-A70V background) displayed on phage (human; bacteriophage M13); assay: competitive phage ELISA
T2 construct: range 249-406; monovalent M13 phage display
Summary of the method: as §1

[3] = molecular target: T3, IGF-I P63A (G1S-A70V background) displayed on phage (human; bacteriophage M13); assay: competitive phage ELISA
T3 construct: monovalent M13 phage display; not shown: M13 gene III protein fragment (residues 249-406), the phage display carrier, and its junction to IGF-I
T3 chain: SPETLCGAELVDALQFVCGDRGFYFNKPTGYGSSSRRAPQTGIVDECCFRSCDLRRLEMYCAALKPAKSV
Summary of the method: as §1

[4] = molecular target: T4, Ala(1-3)-IGF-I displayed on phage (human; bacteriophage M13, UniProt P69168 267-424); assay: competitive phage ELISA
T4 chain: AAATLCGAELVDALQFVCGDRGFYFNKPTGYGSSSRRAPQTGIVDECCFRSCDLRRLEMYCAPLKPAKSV
Summary of the method: as §1

[5] = molecular target: T5, IGF-I S1G (G1S-A70V background) displayed on phage (human; bacteriophage M13, UniProt P69168 267-424); assay: competitive phage ELISA
T5 construct: range 249-406; monovalent M13 phage display
Summary of the method: as §1

[6] = molecular target: T6, IGF-I Y31A (G1S-A70V background) displayed on phage (human; bacteriophage M13); assay: competitive phage ELISA
T6 construct: monovalent M13 phage display; not shown: M13 gene III fragment (residues 249-406, display partner) and the junction to it
T6 chain: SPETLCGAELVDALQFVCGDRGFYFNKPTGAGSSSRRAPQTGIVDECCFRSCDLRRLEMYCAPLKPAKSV
Summary of the method: as §1

[7] = molecular target: T7, IGF-I L64A (G1S-A70V background) displayed on phage (human; bacteriophage M13); assay: competitive phage ELISA
T7 construct: monovalent M13 phage display; not shown: M13 gene III protein fragment (residues 249-406), the phage display carrier, and its junction to IGF-I
T7 chain: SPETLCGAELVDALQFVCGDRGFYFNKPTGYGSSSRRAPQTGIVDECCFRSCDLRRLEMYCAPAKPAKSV
Summary of the method: as §1

[8] = molecular target: T8, IGF-I F25A (G1S-A70V background) displayed on phage (human; bacteriophage M13, not fully specified; Displayed monovalently on M13 phage as a C-terminal fusion to the gene III fragment, which is left out of the letters.); assay: competitive phage ELISA
T8 construct: monovalent M13 phage display; not shown: Display carrier: M13 gene III fragment (residues 249-406) and its junction
T8 chain: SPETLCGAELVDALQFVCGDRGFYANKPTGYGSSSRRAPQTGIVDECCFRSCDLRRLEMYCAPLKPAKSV
Summary of the method: as §1

[9] = molecular target: T9, wild-type IGF-I displayed on phage (human; bacteriophage M13, UniProt P69168 267-424); assay: competitive phage ELISA
T9 construct: range 249-406; monovalent M13 phage display; also called IGF-I WT; double-mutation restoring wild-type IGF-I
Summary of the method: as §1

[10] = molecular target: T10, IGF-I L10A (G1S-A70V background) displayed on phage (human; bacteriophage M13); assay: competitive phage ELISA
T10 construct: monovalent M13 phage display
T10 chain: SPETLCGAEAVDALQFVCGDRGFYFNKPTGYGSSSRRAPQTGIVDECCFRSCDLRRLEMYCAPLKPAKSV
Summary of the method: as §1

[11] = molecular target: T11, IGF-I F16A (G1S-A70V background) displayed on phage (human; bacteriophage M13); assay: competitive phage ELISA
T11 construct: monovalent M13 phage display
T11 chain: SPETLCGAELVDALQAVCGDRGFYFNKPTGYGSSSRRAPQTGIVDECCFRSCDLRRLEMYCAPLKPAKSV
Summary of the method: as §1

[12] = molecular target: T12, IGF-I R55A (G1S-A70V background) displayed on phage (human; bacteriophage M13); assay: competitive phage ELISA
T12 construct: monovalent M13 phage display
T12 chain: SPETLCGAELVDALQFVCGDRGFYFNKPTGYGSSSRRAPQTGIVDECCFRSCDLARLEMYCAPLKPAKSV
Summary of the method: as §1

[13] = molecular target: T13, wild-type human IGF-I (purified, soluble) (human, UniProt P05019 49-118); assay: BIACORE; KD mut/KD wt
T13 construct: immobilized on the biosensor chip by amine coupling in BIACORE experiments; also called IGF-I WT
T13 sequence (P05019 49-118): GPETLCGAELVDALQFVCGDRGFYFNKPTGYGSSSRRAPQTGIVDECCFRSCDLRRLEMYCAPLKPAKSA
Procedure: (§2) Carboxymethylated dextran biosensor chips (CM5, BIAcore Inc.) were activated with EDC (N-ethyl-N′-(3-dimethylaminopropyl)-carbodiimide hydrochloride) and NHS (N-hydroxysuccinimide) according to the supplier's instructions. For immobilization, IGF mutants in 20 mM sodium acetate, pH 4.8, were injected onto the biosensor chip at a concentration of 50 μg/ml to yield approximately 450-600 RU's (resonance-response units) of covalently-coupled protein. Unreacted groups were blocked with an injection of 1 M ethanolamine. […] Association rates (kₐ) and dissociation rates (kd) were calculated separately using a 1:1 Langmuir™ association model in the BIACORE™ evaluation software v. 3.0. The equilibrium dissociation constant (KD) was calculated as kd/kₐ.

[14] = molecular target: T14, IGF-I F25A (purified, soluble) (human, UniProt P05019 49-118); assay: BIACORE; KD mut/KD wt
T14 construct: made from the wild-type template pBKIGF2B-f1-ori
T14 sequence (P05019 49-118 F73A): as the sequence (P05019 49-118) above, with F25A counted along it
Procedure: as §2

B1: human IGFBP-1 (other, UniProt P08833 26-259, looked up)
chain: APWQCAPCSAEKLALCPPVSASCSEVTRSAGCGCCPMCALPLGAACGVATARCARGLSCRALPGEQQPLHALTRGQGACVQESDASAPHAAEAGSPESPESTEITEEELLDNFHLMAPSEEDHSILWDAISTYDGSKALHVTNIKKWKEPCRIELYRVVESLAKAQETSGEEISKFYLPNCNKNGFYHSRQCETSMDGEAGLCWCVYPWNGKRIPGSPEIRGDPNCQIYFNVQN
notes: secreted recombinant protein purified from conditioned medium
For B1, the IC50 [1] was 13.7 nM, the IC50 [2] was 11 nM and the IC50 [3] was > 1000 nM. The IC50 [4] was 90.4 nM, the IC50 [5] was 11.2 nM and the IC50 [6] was 6.8 nM. The IC50 [7] was 12.1 nM, the IC50 [8] was 181 nM and the IC50 [9] was 8.4 nM. It also gave an IC50 [10] of 311 nM, an IC50 [11] of 57.8 nM and an IC50 [12] of 9 nM. The “relative KD” value [13] was 1 and the “relative KD” value [14] was 25.
